Experimental data published in patent US20200247855A1, “THERAPY AND DIAGNOSTICS” (OXFORD UNIVERSITY INNOVATION LIMITED, priority 2017, published 2020).
Substitutions are numbered along the chain they refer to. “Also recorded” adds a separate entry of the source. Read-outs that look alike come from different tables or passages of the source.

What was measured:
CCL18_HUMAN [1] = target: T1, CCL18_HUMAN (Homo sapiens, UniProt P55774); details: read-out: Kd, CCL18_HUMAN, previously described evasins; data obtained from publications [20-22,32]; cited from earlier work
T1 sequence (P55774 21-89): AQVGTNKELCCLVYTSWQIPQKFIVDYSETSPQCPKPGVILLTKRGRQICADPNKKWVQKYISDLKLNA

CCL3_HUMAN [2] = target: T2, CCL3_HUMAN (Homo sapiens, UniProt P10147); details: read-out: Kd, CCL3_HUMAN, previously described evasins; data obtained from publications [20-22,32]; cited from earlier work
T2 sequence (P10147 24-92): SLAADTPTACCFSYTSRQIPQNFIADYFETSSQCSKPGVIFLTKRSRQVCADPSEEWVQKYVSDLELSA

CCL3L1_HUMAN [3] = target: T3, CCL3L1_HUMAN (Homo sapiens, UniProt P16619); details: read-out: Kd, CCL3L1_HUMAN, previously described evasins; data obtained from publications [20-22,32]; cited from earlier work
T3 sequence (P16619 24-93): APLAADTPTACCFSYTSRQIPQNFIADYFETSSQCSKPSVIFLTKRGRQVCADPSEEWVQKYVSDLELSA

CCL4_HUMAN [4] = target: T4, CCL4_HUMAN (Homo sapiens, UniProt P13236); details: read-out: Kd, CCL4_HUMAN, previously described evasins; data obtained from publications [20-22,32]; cited from earlier work
T4 sequence (P13236 24-92): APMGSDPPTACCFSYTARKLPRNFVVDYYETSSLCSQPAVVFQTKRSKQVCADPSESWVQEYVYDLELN

chemokines = details: list of chemokines bound, from the literature [18,20-22]; listed as EVA1_RHISA; cited from earlier work
CCL8_HUMAN = target: T5, CCL8_HUMAN (Homo sapiens, UniProt P80075); test: Biolayer interferometry (BLI) binding
T5 sequence (P80075 24-99): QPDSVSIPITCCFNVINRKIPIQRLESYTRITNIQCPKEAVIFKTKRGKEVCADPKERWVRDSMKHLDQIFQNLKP
Procedure, shortened: (§1)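 Binding was measured by biolayer interferometry with the His-tagged tick protein bound to Ni-NTA sensors. A single-concentration screen used chemokine at 300 nM. Chemokines that bound were retested over multiple doses, and Kd was calculated from fitted curves.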

CCL3L1_HUMAN [5] = target: T3, CCL3L1_HUMAN; test: Biolayer interferometry (BLI) binding
Procedure, shortened: as §1

CCL19_HUMAN [6] = target: T6, CCL19_HUMAN (Homo sapiens, UniProt Q99731); test: Biolayer interferometry (BLI) binding
T6 sequence (Q99731 22-98): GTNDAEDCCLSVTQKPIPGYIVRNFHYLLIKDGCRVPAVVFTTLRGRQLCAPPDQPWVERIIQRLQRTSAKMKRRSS
Procedure, shortened: as §1

CCL14_HUMAN = target: T7, CCL14_HUMAN (Homo sapiens, UniProt Q16627); test: Biolayer interferometry (BLI) binding
T7 sequence (Q16627 20-93): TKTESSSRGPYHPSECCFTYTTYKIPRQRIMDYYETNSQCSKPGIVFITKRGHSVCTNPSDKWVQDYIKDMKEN
Procedure, shortened: as §1

CCL18_HUMAN [7] = target: T1, CCL18_HUMAN; test: Biolayer interferometry (BLI) binding
Procedure, shortened: as §1

CCL27_HUMAN = target: T8, CCL27_HUMAN (Homo sapiens, UniProt Q9Y4X3); test: Biolayer interferometry (BLI) binding
T8 sequence (Q9Y4X3 25-112): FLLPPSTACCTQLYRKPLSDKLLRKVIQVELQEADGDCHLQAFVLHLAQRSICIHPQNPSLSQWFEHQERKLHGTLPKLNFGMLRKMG
Procedure, shortened: as §1

CCL13_HUMAN = CCL13_HUMAN (Homo sapiens, UniProt Q99616); test: Biolayer interferometry (BLI) binding
CCL13_HUMAN, sequence (Q99616 17-98): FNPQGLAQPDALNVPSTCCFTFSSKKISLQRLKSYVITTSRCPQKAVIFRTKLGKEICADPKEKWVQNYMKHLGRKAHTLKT
Procedure, shortened: as §1

CCL24_HUMAN = target: T9, CCL24_HUMAN (Homo sapiens, UniProt O00175); test: Biolayer interferometry (BLI) binding
T9 sequence (O00175 27-119): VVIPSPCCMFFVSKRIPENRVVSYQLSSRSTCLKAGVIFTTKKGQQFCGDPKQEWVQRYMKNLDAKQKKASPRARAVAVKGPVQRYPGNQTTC
Procedure, shortened: as §1

CCL7_HUMAN = CCL7_HUMAN (Homo sapiens, UniProt P80098); test: Biolayer interferometry (BLI) binding
CCL7_HUMAN, sequence (P80098 24-99): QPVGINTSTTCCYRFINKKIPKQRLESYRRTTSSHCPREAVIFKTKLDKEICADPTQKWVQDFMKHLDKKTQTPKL
Procedure, shortened: as §1

CCL15_HUMAN = target: T10, CCL15_HUMAN (Homo sapiens, UniProt Q16663); test: Biolayer interferometry (BLI) binding
T10 sequence (Q16663 22-113): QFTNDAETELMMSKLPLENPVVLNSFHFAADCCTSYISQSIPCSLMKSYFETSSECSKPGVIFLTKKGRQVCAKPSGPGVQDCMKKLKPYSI
Procedure, shortened: as §1

CCL11_HUMAN [8] = target: T11, CCL11_HUMAN (Homo sapiens, UniProt P51671); test: Biolayer interferometry (BLI) binding
T11 sequence (P51671 24-97): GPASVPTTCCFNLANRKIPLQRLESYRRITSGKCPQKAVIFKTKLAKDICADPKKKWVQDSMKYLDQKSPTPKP
Procedure, shortened: as §1

CCL4_HUMAN [9] = target: T4, CCL4_HUMAN; test: Biolayer interferometry (BLI) binding
Procedure, shortened: as §1

CCL4L1_HUMAN = target: T12, CCL4L1_HUMAN (Homo sapiens, UniProt Q8NHW4); test: Biolayer interferometry (BLI) binding
T12 sequence (Q8NHW4 24-92): T4 sequence (P13236 24-92) with S47G
Procedure, shortened: as §1

CCL22_HUMAN = target: T13, CCL22_HUMAN (Homo sapiens, UniProt O00626); test: Biolayer interferometry (BLI) binding
T13 sequence (O00626 25-93): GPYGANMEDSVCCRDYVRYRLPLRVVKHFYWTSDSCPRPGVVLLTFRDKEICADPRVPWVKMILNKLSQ
Procedure, shortened: as §1

CCL23_HUMAN = target: T14, CCL23_HUMAN (Homo sapiens, UniProt P55773); test: Biolayer interferometry (BLI) binding
T14 sequence (P55773 22-120): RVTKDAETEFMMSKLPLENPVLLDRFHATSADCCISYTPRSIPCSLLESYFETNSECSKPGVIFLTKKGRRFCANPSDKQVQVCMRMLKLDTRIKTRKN
Procedure, shortened: as §1

CCL5_HUMAN [10] = target: T15, CCL5_HUMAN (Homo sapiens, UniProt P13501); test: Biolayer interferometry (BLI) binding
T15 sequence (P13501 24-91): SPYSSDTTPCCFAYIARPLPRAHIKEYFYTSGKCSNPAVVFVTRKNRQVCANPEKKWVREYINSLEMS
Procedure, shortened: as §1

CCL18_HUMAN [11] = target: T1, CCL18_HUMAN; test: Yeast surface display (YSD) FACS binding
Procedure, shortened: (§2)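 Yeast clones displaying tick peptides were re-tested by FACS with labelled chemokine. Binding = % of peptide-expressing yeast above a background threshold set with streptavidin-Alexa647 alone; the mean percent shift was used where several clones were isolated. Confirmed binding ("YES") required >3-fold over background mean fluorescence intensity.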

CCL1_HUMAN = target: T16, CCL1_HUMAN (Homo sapiens, UniProt P22362); test: Yeast surface display (YSD) FACS binding
T16 sequence (P22362 24-96): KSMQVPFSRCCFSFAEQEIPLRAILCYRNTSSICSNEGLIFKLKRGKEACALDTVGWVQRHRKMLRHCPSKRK
Procedure, shortened: as §2

CCL11_HUMAN [12] = target: T11, CCL11_HUMAN; test: Yeast surface display (YSD) FACS binding
Procedure, shortened: as §2

CXCL12_HUMAN = CXCL12_HUMAN (Homo sapiens, UniProt P48061); test: Yeast surface display (YSD) FACS binding; details: yeast surface display
CXCL12_HUMAN, sequence (P48061 22-93): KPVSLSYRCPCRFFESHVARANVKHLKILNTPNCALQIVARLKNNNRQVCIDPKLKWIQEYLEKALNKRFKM
Procedure, shortened: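 Yeast clones displaying tick peptides were re-tested by FACS with labelled chemokine detected by streptavidin-Alexa conjugate. Binding was scored as % of peptide-expressing cells above a background set with streptavidin-Alexa alone, averaged over independent clones. In the screen tables, >3-fold over background mean fluorescence intensity was scored as binding.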

CCL5_HUMAN [13] = target: T15, CCL5_HUMAN; test: Yeast surface display (YSD) FACS binding
Procedure, shortened: as §2

CCL19_HUMAN [14] = target: T6, CCL19_HUMAN; test: Yeast surface display (YSD) FACS binding
Procedure, shortened: as §2

CCL3_HUMAN [15] = target: T2, CCL3_HUMAN; test: Yeast surface display (YSD) FACS binding
Procedure, shortened: as §2

CCL17_HUMAN = target: T17, CCL17_HUMAN (Homo sapiens, UniProt Q92583); test: Yeast surface display (YSD) FACS binding
T17 sequence (Q92583 24-94): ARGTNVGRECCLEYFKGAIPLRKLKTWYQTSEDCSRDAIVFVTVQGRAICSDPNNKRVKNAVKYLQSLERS
Procedure, shortened: as §2

B1: EVASIN1: previously described tick CKBP evasin 1, from Rhipicephalus sanguineus (protein, listed as Rhipicephalus sanguineus)
chain: EDDEDYGDLGGCPFLVAENKTGYPTIVACKQDCNGTTETAPNGTRCFSIGDEGLRRMTANLPYDCPLGQCSNGDCIPKETYEVCYRRNWRDKKN
Kd (CCL18_HUMAN [1]): 3 nM | Kd (CCL3_HUMAN [2]): 0.1 nM | Kd (CCL3L1_HUMAN [3]): 0.05 nM | Kd (CCL4_HUMAN [4]): 0.5 nM | Previously described chemokine binding (chemokines): CCL3, CCL3L1, CCL4, CCL4L1, CCL14 and CCL18 but not CCL8; also recorded: CCL3, CCL3L1,; also recorded: CCL4, CCL18 | CCL8 binding (bound or not) (CCL8_HUMAN; 300 nM or 600 nM CCL8): did not

B2: P991_AMBCA: tick CKBP, Amblyomma cajennense (protein)
chain: ENGEGTTQPDYDNSTDYYNYEDFKCTCPAPHLNNTNGTVMKPIGCYYTCNVTRCTAPDTYPCYNLTEHQAKNLTTSPTTLCAVGNCDHGICVPNGTKELCFKAPNLEE
modifications: Amblyomma cajennense
Kd (CCL3L1_HUMAN [5]): 1.4 nM | Kd (CCL19_HUMAN [6]): 14.4 nM | Kd (CCL14_HUMAN): 0.43 nM | Kd (CCL18_HUMAN [7]): 0.209 nM | Kd (CCL27_HUMAN): 38.9 nM | Kd (CCL13_HUMAN): 0.419 nM | Kd (CCL24_HUMAN): 6.54 nM | Kd (CCL7_HUMAN): 0.514 nM | Kd (CCL15_HUMAN): 159 nM | Kd (CCL8_HUMAN; read-out: Kd, CCL8_HUMAN): 8.79 nM | Kd (CCL11_HUMAN [8]): 3.43 nM | Kd (CCL4_HUMAN [9]): 5.82 nM | Kd (CCL4L1_HUMAN): 0.827 nM | Kd (CCL22_HUMAN): 3.97 nM | Kd (CCL23_HUMAN): 5.58 nM | Kd (CCL5_HUMAN [10]): 1.47 nM

B3: P1029_AMBPA: tick CKBP, Amblyomma parvum; named P1209_AMBPA in Table 1 (protein, listed as Amblyomma parvum)
chain: KTDTKNAAGELPPKVAIPGCEDPATTKAPLPDDPRYYGVTIDKDGCQRKVLGSSQRQQRQVQNGRKPGRKGRGRRPVFVDLKLTVDCKRKCNGTYSQLPDGEPCLVCDGEPYGRHRTIKGGCYQGNCSSGQCHRGERKVNCYIPKNITNNVLNSVNLAE
Binding to CCL18_HUMAN, YSD (CCL18_HUMAN [11]): YES (An arbitrary threshold of >3 fold over background mean fluorescence intensity was chosen to describe confirmed re-tests. Where binding was detected data are indicated as “YES”) | Binding to CCL1_HUMAN, YSD (CCL1_HUMAN): YES (An arbitrary threshold of >3 fold over background mean fluorescence intensity was chosen to describe confirmed re-tests. Where binding was detected data are indicated as “YES”) | Binding to CCL11_HUMAN, YSD (CCL11_HUMAN [12]): YES (An arbitrary threshold of >3 fold over background mean fluorescence intensity was chosen to describe confirmed re-tests. Where binding was detected data are indicated as “YES”) | Binding to CXCL12_HUMAN, YSD (CXCL12_HUMAN): YES (An arbitrary threshold of >3 fold over background mean fluorescence intensity was chosen to describe confirmed re-tests. Where binding was detected data are indicated as “YES”) | Binding to CCL5_HUMAN, YSD (CCL5_HUMAN [13]): YES (An arbitrary threshold of >3 fold over background mean fluorescence intensity was chosen to describe confirmed re-tests. Where binding was detected data are indicated as “YES”)

B4: P1005_AMBMA: tick CKBP, Amblyomma maculatum (protein, listed as Amblyomma maculatum)
chain: EKDTPKNIPGCGDTGTTAAPPADNPKHFAVYTDKHGCTIKVIGTWMTKEDHSRLPVSLRRVRASSGRVMLPASCQKICNDTVKNFPEGTPCRLVTGDPIKGKNHIKDGCIRGYCSSGVCVSDKRNISCYVPPN
Binding to CCL19_HUMAN, YSD (CCL19_HUMAN [14]): YES (An arbitrary threshold of >3 fold over background mean fluorescence intensity was chosen to describe confirmed re-tests. Where binding was detected data are indicated as “YES”) | Binding to CCL1_HUMAN, YSD (CCL1_HUMAN): YES (An arbitrary threshold of >3 fold over background mean fluorescence intensity was chosen to describe confirmed re-tests. Where binding was detected data are indicated as “YES”) | Binding to CCL11_HUMAN, YSD (CCL11_HUMAN [12]): YES (An arbitrary threshold of >3 fold over background mean fluorescence intensity was chosen to describe confirmed re-tests. Where binding was detected data are indicated as “YES”) | Binding to CCL3_HUMAN, YSD (CCL3_HUMAN [15]): YES (An arbitrary threshold of >3 fold over background mean fluorescence intensity was chosen to describe confirmed re-tests. Where binding was detected data are indicated as “YES”) | Binding to CCL5_HUMAN, YSD (CCL5_HUMAN [13]): YES (An arbitrary threshold of >3 fold over background mean fluorescence intensity was chosen to describe confirmed re-tests. Where binding was detected data are indicated as “YES”) | Binding to CCL17_HUMAN, YSD (CCL17_HUMAN): YES (An arbitrary threshold of >3 fold over background mean fluorescence intensity was chosen to describe confirmed re-tests. Where binding was detected data are indicated as “YES”)
